One molecule from US20230070886A1 (NOVAVAX, published 2023) can be followed below.

For this assay, the target named is His-tagged human angiotensin-converting enzyme 2 precursor (hACE2) (human, UniProt Q9BYF1 18-740). In words: bio-layer interferometry.
Chain of His-tagged human angiotensin-converting enzyme 2 precursor (hACE2) (Q9BYF1 18-740 limits assumed): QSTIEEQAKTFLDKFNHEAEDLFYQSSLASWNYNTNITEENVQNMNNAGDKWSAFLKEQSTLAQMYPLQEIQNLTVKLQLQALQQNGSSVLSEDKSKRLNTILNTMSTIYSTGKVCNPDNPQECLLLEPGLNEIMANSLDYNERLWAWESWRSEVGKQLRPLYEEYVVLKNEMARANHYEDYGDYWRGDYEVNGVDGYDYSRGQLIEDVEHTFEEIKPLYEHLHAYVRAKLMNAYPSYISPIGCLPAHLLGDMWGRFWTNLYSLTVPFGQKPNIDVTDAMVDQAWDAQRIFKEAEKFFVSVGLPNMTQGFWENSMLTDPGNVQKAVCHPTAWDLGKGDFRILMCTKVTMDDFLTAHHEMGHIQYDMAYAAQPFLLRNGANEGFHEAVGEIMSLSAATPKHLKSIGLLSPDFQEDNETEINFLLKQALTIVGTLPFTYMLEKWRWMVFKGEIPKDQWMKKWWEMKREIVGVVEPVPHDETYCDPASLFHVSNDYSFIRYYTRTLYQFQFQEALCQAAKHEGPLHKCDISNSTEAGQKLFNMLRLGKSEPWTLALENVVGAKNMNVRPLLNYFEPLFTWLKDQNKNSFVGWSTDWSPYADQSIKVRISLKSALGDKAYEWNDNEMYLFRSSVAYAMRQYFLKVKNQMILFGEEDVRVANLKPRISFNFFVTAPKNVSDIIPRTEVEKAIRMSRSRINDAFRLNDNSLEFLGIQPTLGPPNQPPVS

B1: MERS S protein (other)
chain: YVDVGPDSVKSACIEVDIQQTFFDKTWPRPIDVSKADGIIYPQGRTYSNITITYQGLFPYQGDHGDMYVYSAGHATGTTPQKLFVANYSQDVKQFANGFVVRIGAAANSTGTVIISPSTSATIRKIYPAFMLGSSVGNFSDGKMGRFFNHTLVLLPDGCGTLLRAFYCILEPRSGNHCPAGNSYTSFATYHTPATDCSDGNYNRNASLNSFKEYFNLRNCTFMYTYNITEDEILEWFGITQTAQGVHLFSSRYVDLYGGNMFQFATLPVYDTIKYYSIIPHSIRSIQSDRKAWAAFYVYKLQPLTFLLDFSVDGYIRRAIDCGFNDLSQLHCSYESFDVESGVYSVSSFEAKPSGSVVEQAEGVECDFSPLLSGTPPQVYNFKRLVFTNCNYNLTKLLSLFSVNDFTCSQISPAAIASNCYSSLILDYFSYPLSMKSDLSVSSAGPISQFNYKQSFSNPTCLILATVPHNLTTITKPLKYSYINKCSRFLSDDRTEVPQLVNANQYSPCVSIVPSTVWEDGDYYRKQLSPLEGGGWLVASGSTVAMTEQLQMGFGITVQYGTDTNSVCPKLEFANDTKIASQLGNCVEYSLYGVSGRGVFQNCTAVGVRQQRFVYDAYQNLVGYYSDDGNYYCLRACVSVPVSVIYDKETKTHATLFGSVACEHISSTMSQYSRSTRSMLKRRDSTYGPLQTPVGCVLGLVNSSLFVEDCKLPLGQSLCALPDTPSTLTPRSVRSVPGEMRLASIAFNHPIQVDQLNSSYFKLSIPTNFSFGVTQEYIQTTIQKVTVDCKQYVCNGFQKCEQLLREYGQFCSKINQALHGANLRQDDSVRNLFASVKSSQSSPIIPGFGGDFNLTLLEPVSISTGSRSARSAIEDLLFDKVTIADPGYMQGYDDCMQQGPASARDLICAQYVAGYKVLPPLMDVNMEAAYTSSLLGSIAGVGWTAGLSSFAAIPFAQSIFYRLNGVGITQQVLSENQKLIANKFNQALGAMQTGFTTTNEAFHKVQDAVNNNAQALSKLASELSNTFGAISASIGDIIQRLDVLEQDAQIDRLINGRLTTLNAFVAQQLVRSESAALSAQLAKDKVNECVKAQSKRSGFCGQGTHIVSFVVNAPNGLYFMHVGYYPSNHIEVVSAYGLCDAANPTNCIAPVNGYFIKTNNTRIVDEWSYTGSSFYAPEPITSLNTKYVAPQVTYQNISTNLPPPLLGNSTGIDFQDELDEFFKNVSTSIPNFGSLTQINTTLLDLTYEMLSLQQVVKALNESYIDLKELGNYTYYNKWPWYIWLGFIAGLVALALCVFFILCCTGCGTNCMGKLKCNRCCDRYEEYDLEPHKVHVH
As for B1, the binding result was “no binding”.
